Data from patent US20230399407A1 (KOREA UNIVERSITY RESEARCH AND BUSINESS FOUNDATION, published 2023).

B1: scFv antibody variant JS116 (scFv, V domains shown)
VH: QVQLQESGGGLVQPGGSLRLACAGSGFTFSNFAMAWVRLAPGKGLEWVSGISDDGTITDYADSVKGRFTISRDNSKNTLYLQMNSLRAEDTAVYYCVRVPPPAPVQGPDYWGQGTTVTVSS
VL: DVVMTQSPSAMSASVGDRVTITCRASQGISNYLAWFQQKPGKVPKRLIYAASSLQGGVPSRFRGRGSGTDFTLSISCLQSEDFATYYCQQYHSYPLTFGGGTKLSVLG
notes: No full VH/VL is printed
B2: scFv antibody variant JS30 (scFv, V domains shown)
VH: EVQLVESGPGQVKPSETLSLTCSVSGGSISSRDWWGWVRQPPGEGLEWIGEIYHSGTTNYNPSLKSRVTMSMDTSKNQLSLKLTGVTAVDTAVYYCVTYSASDAAFDSWGQGTLVTVSS
VL: ETTLTQSPSSLSASVGDRITITCRASQSISTCLNWYQQKPGKAPKSLIYGASILQSGVSSQFSGSGPGTDFTLTIGSLQPEGFATYYCQQGNSVPLTFGGGTKVDIKR
B3: scFv antibody variant JS41 (scFv, V domains shown)
VH: EVQLVESGPGQVKPSETLSLTCSVSGGSISSRDWWGWVRQPPGEGLEWIGEIYHSGTTNYNPSLKSRVTMSMDTSKNQLSLKLTGVTAVDTAVYYCVTYSAYDAAFDSWGQGTLVTVSS
VL: ETTLTQSPSSLSASVGDRITITCRASQSISTYLSWYQQKPGKAPKSLIYGASNLQSGVSSQFRGSGPGTDFTLTISSLQPEDFATYYCQQGNSVPLTFGGGTKVDIKR
B4: scFv antibody variant JS144 (scFv, V domains shown)
VH: QVQLQESGGGLVQPGGSLRLACAGSGFTFSNFAMAWVRLAPGKGLEWVSGISDDGTITDYADSVKGRFTISRDNSKNTLYLQMNSLRAEDTAVYYCVRVPSPAPVQGPDYWGQGTTVTVSS
VL: DVVMTQSPSAMSASVGDRVTITCRASQGISNYLAWFQQKPGKVPKRLIYAASSLQGGVPSRFRGRGSGTDFTLSISCLQSEDFATYYCQQYHSYPLTFGGGTKLSVLG
B5: scFv antibody variant JS48 (scFv, V domains shown)
VH: QVQLQESGGGLVQPGGSLRLTCAGSGFTFSNFAMAWVRLAPGKGLEWVSGISDDGTITDYADSVKGRFTISRDNSKNTLYLQMNSLRAEDTAVYYCVKVPSPAPMQGPDYWGQGTLVTVSS
VL: ETTLTQSPSSLSASVGDRVTITCRASQSISTYLNWYQQKPGKAPKSLIYGASNLQSGVSSQFSGRGPGTDFTLTISSLQPEDFATYYCQQGNSVPLTFGGGTKVDIKR
B6: scFv antibody variant JS9 (scFv, V domains shown)
VH: EVQLVGSGGGVVQPGRSLRLSCAASGFNFDDHAMHWVRQAPGKGLEWVSSISGSGGDTYYADSVKGRFTIARDNSKNTLYLQMNSLRAEDTAVYYCATEARGLAHWGQGTLVTVSS
VL: SSELTQDPAVSVALGQTASITCSGHKLGERYACWYQQKPGQSPVLVIYQDTKRPSGIPERFSGSNTGNTATLTITGTQAMDEADYYCQAWDSSTVVFGGGTKLTVLG

molecular target: T1, Fc alpha receptor-ECD-streptavidin-Alexa488 (human, UniProt P24071 22-227, labeled with Alexa488 fluorescent molecules (sites not given)); test: flow cytometry, legend of FIG. 8
T1 construct: Tetrameric antigen made in Expi293F cells and labelled with Alexa488 for flow cytometry; Any linker or purification tag (Ni-NTA resin was used) is not described; also called Fc alpha receptor-ECD-streptavidin-Alexa488 probe; Fc alpha receptor-ECD-streptavidin-Alexa488 antigen; not shown: streptavidin tag
T1 sequence (P24071 22-227 limits assumed): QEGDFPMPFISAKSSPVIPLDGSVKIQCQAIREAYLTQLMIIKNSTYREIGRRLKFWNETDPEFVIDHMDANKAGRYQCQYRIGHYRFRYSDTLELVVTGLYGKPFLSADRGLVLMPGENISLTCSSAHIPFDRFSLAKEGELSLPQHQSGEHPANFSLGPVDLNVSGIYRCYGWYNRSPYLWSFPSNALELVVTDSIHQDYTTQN

Binder	binding result
B1	binds

molecular target: T1, Fc alpha …; test: flow cytometry, scFv displayed on E. coli spheroplasts, 50 nM Alexa488-labelled antigen

Binder	binding result
B2	binds
B3	binds
B4	binds
B5	binds
B6	binds
